Results: patent US20120164161A1 (AFFITECH RESEARCH, published 2012)
Numbering of substitutions follows the chain as printed. Blank lines part the entries; values can stand above or below the binder they belong to.

Tests used:
[1] = target: T1, human CC chemokine receptor 4 (CCR4) (human, UniProt P51679 1-360); assay: cell-based or functional assay
T1 sequence (looked up): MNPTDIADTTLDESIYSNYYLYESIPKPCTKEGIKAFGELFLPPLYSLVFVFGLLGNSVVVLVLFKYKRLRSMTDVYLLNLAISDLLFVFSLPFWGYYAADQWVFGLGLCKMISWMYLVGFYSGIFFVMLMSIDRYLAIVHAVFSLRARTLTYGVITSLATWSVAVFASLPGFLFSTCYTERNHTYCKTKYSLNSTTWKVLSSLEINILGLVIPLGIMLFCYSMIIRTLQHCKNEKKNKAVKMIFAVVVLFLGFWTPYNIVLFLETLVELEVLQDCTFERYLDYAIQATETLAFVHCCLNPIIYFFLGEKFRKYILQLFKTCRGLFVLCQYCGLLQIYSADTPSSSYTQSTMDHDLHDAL

[2] = target: T1, human CC chemokine receptor 4 (CCR4); assay: flow cytometry competition; IgG titrated from 5 ug/ml against fixed Alexa647 MDC-SNAP (50 nM); competitor MDC-SNAP
[3] = target: T1, human CC chemokine receptor 4 (CCR4); assay: flow cytometry on Hut78 cells (CCR4-positive); defucosylated IgG1, detected with RPE anti-human IgG; Median-PE [panel Hut78]
Description: (§1) All cells were re-suspended in PBS with 0.2% BSA and 0.09% NaN3 and finally aliquoted 1×10^5 cells per well into V-shaped 96-well plates (Greiner Bio-One, Frickenhausen, Germany). Cells were centrifuged at 400×g for 5 min and then incubated at 4° C. for 60 min with different IgG dilutions. For binding in presence of human serum, CCRF-CEM cells were incubated with different IgG-solutions at either 10% or 50% of human serum (Sigma Aldrich, St Louis, Mo., USA) at 37° C. for 60 min.

[4] = target: T1, human CC chemokine receptor 4 (CCR4); assay: cell-based or functional assay; remark: listed apart in the source
[5] = target: T2, mouse CCR4 (mouse, UniProt P51680 1-360); assay: flow cytometry on transiently transfected HEK-293T/17 cells, IgG 1 ug/ml
T2 construct: whole, on cells; also called murine CCR4
T2 sequence (looked up): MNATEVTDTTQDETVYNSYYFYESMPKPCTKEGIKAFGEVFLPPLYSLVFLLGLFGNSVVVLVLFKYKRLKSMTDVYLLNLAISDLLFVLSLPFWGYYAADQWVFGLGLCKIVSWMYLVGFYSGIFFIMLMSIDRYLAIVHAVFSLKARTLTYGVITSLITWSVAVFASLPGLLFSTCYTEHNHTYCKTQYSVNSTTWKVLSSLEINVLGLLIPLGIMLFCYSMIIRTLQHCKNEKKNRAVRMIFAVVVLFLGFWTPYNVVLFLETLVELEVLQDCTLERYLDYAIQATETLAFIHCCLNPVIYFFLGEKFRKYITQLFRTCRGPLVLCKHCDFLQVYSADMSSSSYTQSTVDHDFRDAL
Description: (§2) For transient transfection, Hek293T/17 cells were seeded as 2×10^6 cells in a T75 (NUNC) flask. 48 h after seeding, the cells were transfected with Fugene (ROCHE). 40 μl Fugene and 16 μg DNA are used per T75. The cells were used for assays 48 h after transfection.
(§3) Non-transfected (CCR4 negative) cells served as a negative control. The cells were cultivated further for 48 hours under regular conditions and harvested form flasks as described above. One times 10^5 cells per well were aliquoted into V-shaped 96-well plates (Greiner Bio-One, Frikenhausen, Germany). […] The samples were then washed twice by centrifugation and re-suspension in 150 μl FACS buffer. […] The samples were washed twice as described above and re-suspended in 250 μl FACS buffer followed by transfer into a U-shaped 96-well plate (Corning, Schiphol-Rijk, Netherlands) for flow cytometry on FACSCantoII (BD Biosciences, San Jose, Calif.).

[6] = target: T1, human CC chemokine receptor 4 (CCR4); assay: cell-based or functional assay; remark: listed apart in the source
[7] = target: T3, monkey (Macaca mulatta) CCR4 (monkey (Macaca mulatta), UniProt F7GUA3 1-360); assay: flow cytometry on transiently transfected HEK-293T/17 cells, IgG 1 ug/ml (data not shown)
T3 construct: also called monkey CCR4
T3 sequence: T1 sequence (looked up) with M116I, L201I, L215F, E269D, L334F
Description: as §2, §3

[8] = target: T1, human CC chemokine receptor 4 (CCR4); assay: flow cytometry on CCRF-CEM cells; defucosylated IgG1, detected with RPE anti-human IgG; Median-PE [panel CCRF-CEM]
Description: as §1

[9] = target: T1, human CC chemokine receptor 4 (CCR4); assay: flow cytometry competition; IgG titrated from 2.5 ug/ml against fixed biotinylated TARC; competitor biotinylated TARC
[10] = target: T1, human CC chemokine receptor 4 (CCR4); assay: cell-based or functional assay; remark: listed apart in the source
[11] = target: T1, human CC chemokine receptor 4 (CCR4); assay: flow cytometry on DT40 cells expressing human CCR4; scFv cross-linked with mouse anti-Myc antibody, detected with RPE anti-mouse IgG; MFI (PE-signal)
Description: For the flow cytometry experiments, the cells were harvested from the culture flasks, washed 2 times with PBS, re-suspended in PBS with 0.2% BSA and 0.09% NaN3 and finally aliquoted 1×10^5 cells per well into V-shaped 96-well plates (Greiner Bio-One, Frickenhausen, Germany). Cells were centrifuged at 400×g for 5 min and then incubated at 4° C. for 60 min with different scFv dilutions.
All scFv preparations were pre-incubated with a mouse anti-myc-antibody (9E10.2, Diatec, Oslo, Norway) to cross-link scFvs prior adding to the cells and diluted 3-fold, starting at a concentration of 10 μg/ml.
After washing with PBS with 0.2% BSA and 0.09% NaN3, the cells were stained with 1 μg/ml of RPE-conjugated goat anti-mouse IgG (AbD Serotec, Duesseldorf, Germany) for 30 minutes at 4° C. The stained cells were washed, re-suspended in 200 μl PBS with 0.2% BSA and 0.09% NaN3 and transferred to a U-shaped 96-well plate (Corning, Schiphol-Rijk, The Netherlands) for acquisition on EasyCyte flow cytometer (Guava Technologies, Hayward, Calif., USA).

[12] = target: T1, human CC chemokine receptor 4 (CCR4); assay: cell-based or functional assay; remark: listed apart in the source

ADCC on CCRF-CEM cells with human PBMCs, EC50 [1]: 0.114 nM
ADCC on L-428 cells with human PBMCs, EC50 [1]: 0.708 nM
IC50 [2]: 0.28 nM
EC50 (read off the curve) [3]: ~0.06 nM
Inhibition of MDC (Ca-Flux), Blockage of signaling in % at 10 µg/ml IgG [4]: 74%
Inhibition of TARC (Ca-Flux), IC50 [4]: 0.039 nM
binding result [5]: binds
Inhibition of CCL17/TARC-induced migration of CCRF-CEM cells, IC50 [6]: 0.158 nM
Inhibition of CCL22/MDC-induced migration, Blockage of migration in % (IgG 10 µg/ml) [6]: 50%
binding result [7]: binds
EC50 (read off the curve) [8]: ~0.06 nM
IC50 [9]: 0.51 nM
B1: IgG form of antibody 306 (defucosylated IgG1) (antibody, V domains shown)
VH: QVQLVQSGAEVKKPGSSVKVSCKASGGTFSSYAMSWVRQAPGQGLEWMGGIIPIFGTVNYAQKFQGRVTMTRDTSTSTVYMELSSLRPDDTAVYYCARRGGSYFDYWGQGTLVTVSS
VL: SYVLTQPPSASGTPGQSVTISCSGSTSNIGSHYVSWYQQLPGTAPRLLIYRNHQRPSGVPDRLSGSKSGTSASLAISGLRSEDEADYYCAVWDAKYRGWVFGGGTKLTVLG
notes: Human IgG1, lambda light chain; produced in presence of Kifunensine (defucosylated); Biotinylated via cysteines for the human serum experiment
ADCC on CCRF-CEM cells, Max. Killing (%; nM IgG) [1]: 118 % (at 1.4 nM IgG)
ADCC on L-428 cells, Max. Killing (%; nM IgG) [1]: 88 % (at 7 nM IgG)

ADCC on CCRF-CEM cells with human PBMCs, EC50 [1]: 0.0999 nM
ADCC on L-428 cells with human PBMCs, EC50 [1]: 0.704 nM
IC50 [2]: 0.27 nM
EC50 (read off the curve) [3]: ~0.08 nM
Inhibition of MDC (Ca-Flux), Blockage of signaling in % at 10 µg/ml IgG [4]: 74%
Inhibition of TARC (Ca-Flux), IC50 [4]: 0.028 nM
binding result [5]: binds
Inhibition of CCL17/TARC-induced migration of CCRF-CEM cells, IC50 [6]: 0.178 nM
Inhibition of CCL22/MDC-induced migration, Blockage of migration in % (IgG 10 µg/ml) [6]: 49%
binding result [7]: binds
EC50 (read off the curve) [8]: ~0.2 nM
IC50 [9]: 0.94 nM
B2: IgG form of antibody 406 (defucosylated IgG1) (antibody, V domains shown)
VH: B1 VH with G26E, P88S
VL: B1 VL
notes: as for B1
ADCC on CCRF-CEM cells, Max. Killing (%; nM IgG) [1]: 121 % (at 1.4 nM IgG)
ADCC on L-428 cells, Max. Killing (%; nM IgG) [1]: 78 % (at 7 nM IgG)

ADCC on CCRF-CEM cells with human PBMCs, EC50 [1]: 0.0053 nM
ADCC on L-428 cells with human PBMCs, EC50 [1]: 0.233 nM
IC50 [2]: 0.11 nM
EC50 (read off the curve) [3]: ~0.05 nM
Inhibition of MDC (Ca-Flux), Blockage of signaling in % at 10 µg/ml IgG [4]: 64%
Inhibition of TARC (Ca-Flux), IC50 [4]: 0.013 nM
IC50 of inhibition of CCL17/TARC-induced invasion of 786-O cells, CCL17/TARC 25 nM [10]: 0.12 µg/mL
IC50 of inhibition of CCL17/TARC-induced invasion of 786-O cells, CCL17/TARC 125 nM [10]: 1.33 µg/mL
binding result [5]: binds
Inhibition of CCL17/TARC-induced migration of CCRF-CEM cells, IC50 [6]: 0.039 nM
Inhibition of CCL22/MDC-induced migration, Blockage of migration in % (IgG 10 µg/ml) [6]: 39%
binding result [7]: binds
EC50 (read off the curve) [8]: ~0.02 nM
IC50 [9]: 0.87 nM
B3: IgG form of antibody 503 (defucosylated IgG1) (antibody, V domains shown)
VH: B1 VH with G26E, P88S, G100R, S102A, Y103K
VL: B1 VL with S35V, S77G, A94D, K95T, Y96L, R97S
notes: as for B1
ADCC on CCRF-CEM cells, Max. Killing (%; nM IgG) [1]: 108 % (at 1.4 nM IgG)
ADCC on L-428 cells, Max. Killing (%; nM IgG) [1]: 93 % (at 7 nM IgG)

EC50 (read off the curve) [11]: ~0.3 µg/mL
IC50 of inhibition of TARC-mediated Ca-Flux in CCRF-CEM cells [12]: 0.002 nM
B4: 603 scFv (scFv, not shown: small tags and cut ends)
scFv: QVQLVQSGAEVKKPGSSVKVSCKASGGTFSSYAMSWVRQAPGQGLEWMGGIIPIFGTVNYAQKFQGRVTMTRDTSTSTVYMELSSLRSDDTAVYYCARRRGAKFDYWGQGTLVTVSSKLSGSASAPKLEEGEFSEARVSYVLTQPPSASGTPGQSVTISCSGSTSNIGSHYVVWYQQLPGTAPRLLIYRNHQRPSGVPDRLSGSKSGTSASLAIGGLRSEDEADYYCAVWDDTLSGWVFGGGTKLTVL
notes: Expressed in TG1 bacteria; also called scFv 603; antibody 603 (single chain form)
